Entries after “also recorded” stand apart in the source; their conditions may differ.
Columns and labels:
[1] = biological target: CD44 as expressed on human HNSCC cell lines (T.Tn, SCC-15, Detroit-562, CAL 27) (human) (UniProt P16070); experiment: flow cytometry on CAL 27 cells, antibody at 20 ug/mL, duplicate samples
[2] = tested on: T.Tn HNSCC xenograft; experiment: established T.Tn HNSCC xenograft model; assay type: in vivo; conditions: 20 mg/kg i.p. three times per week
Protocol: With reference to FIGS. 2 and 3, 6 to 8 week old female SCID mice were implanted with 10 million T.Tn cells in 100 microliters PBS solution injected subcutaneously in the right flank. The mice were randomly divided into 2 treatment groups of 10. When the average tumor volume of the mice reached approximately 264-268 mm^3, 20 mg/kg of chPTA-4621 test antibody or buffer control was administered intraperitoneally to each cohort in a volume of 300 microliters after dilution from the stock concentration with a diluent that contained 2.7 mM KCl, 1 mM KH2PO4, 137 mM NaCl and 20 mM Na2HPO4. The antibody and control samples were then administered three times per week for the duration of the study. Tumor growth was measured about every 7 days with calipers. The study was completed after ten doses of antibody. Body weights of the animals were recorded once per week for the duration of the study. At the end of the study all animals were euthanized according to CCAC guidelines.

[3] = tested on: T.Tn HNSCC cell line; experiment: FACS binding to HNSCC cell line T.Tn; design: species or system human; conditions: antibody 20 μg/mL on ice 30 minutes
Protocol: (§1) The binding of chPTA-4621 and huPTA-4621 to HNSCC cell lines T.Tn, SCC-15, and Detroit-562 was assessed by flow cytometry (FACS). Cells were prepared for FACS by initially washing the cell monolayer with DPBS (without Ca^++ and Mg^++). Cell dissociation buffer (INVITROGEN, Burlington, ON; for T.Tn, SCC-15 and Detroit-562) was then used to dislodge the cells from their cell culture plates at 37° C. After centrifugation and collection, the cells were resuspended in DPBS containing MgCl2, CaCl2, and 2 percent fetal bovine serum at 4° C. (staining media) and counted, aliquoted to appropriate cell density, spun down to pellet the cells and resuspended in staining media at 4° C. in the presence of test antibodies (chimeric or humanized PTA-4621) or control antibodies (isotype control, anti-EGFR (C225; T.Tn, SCC-15 and Detroit-562). Isotype control and test antibodies were assessed at 20 μg/mL on ice for 30 minutes. For detection of bound antibody, an Alexa Fluor 546 conjugated secondary antibody was used. Prior to the addition of the secondary antibody, the cells were washed once with staining media. The secondary antibody in staining media was then added according to manufacturer's directions. […] Flow cytometric acquisition of the T.Tn, SCC-15 and Detroit-562 cells was assessed by running samples on a FACScan using the CellQuest software (BD Biosciences, Oakville, ON). […]

[4] = tested on: SCC-15 HNSCC cell line; experiment: FACS binding to HNSCC cell line SCC-15; design: species or system human; conditions: antibody 20 μg/mL on ice 30 minutes
Protocol: as §1

[5] = tested on: Detroit-562 HNSCC cell line; experiment: FACS binding to HNSCC cell line Detroit-562; design: species or system human; conditions: antibody 20 μg/mL on ice 30 minutes
Protocol: as §1

[6] = tested on: human breast cancer, liver cancer and prostate cancer xenografts; conditions: preventative and established models; cited from earlier work

Humanized PTA-4621 (RO5429083) (antibody)
fold binding compared to the humanized IgG1 isotype control [1]: 37 fold

B1: chPTA-4621: chimeric PTA-4621 comprising VH and VL domains of SEQ ID NO:1 and SEQ ID NO:2 (antibody, V domains shown)
VH: EVKLLESGGGLVQPGGSLKLSCATSGFDFSRYWMSWVRQAPGKGLEWIGEVNPDSTSINYTPSLKDQFIISRDNAKNTLDLQMSKVSSEDTALYYCTRPNYYGSRYHYYAMDYWGQGTSVTVSS
VL: DIQMTQTTSSLSVSLGDRVTINCRASQDINNYLNWYQQKPDGTVKLLIYYTSRLHSGVPSRFSGSGSGTDFSLTISNLEKEDVATYFCQQGSTLPFTFGSGTKLEIK
modifications: human constant regions without entry; Synthetically generated peptide
clinical signs of toxicity / tolerability [2]: no clinical signs of toxicity; also recorded: well-tolerated
mean body weight between the groups at end of treatment period [2]: no significant difference
reduction of tumor growth compared to buffer treated group ([2]; ten doses, day 105, p=0.0068): 54.9%
binding to T.Tn cell line (FACS) [3]: bind
binding to SCC-15 cell line (FACS) [4]: bind
binding to Detroit-562 cell line (FACS) [5]: bind

B2: PTA-4621: murine monoclonal anti-CD44 antibody produced by hybridoma ATCC PTA-4621; VH SEQ ID NO:1, VL SEQ ID NO:2 (antibody, V domains shown)
VH: B1 VH
VL: B1 VL
modifications: Synthetically generated peptide
anti-tumor effects in pre-clinical xenograft models [6]: significant anti-tumor effects
